How the values were obtained:
[1] = Maximum estimated dietary exposure to media ingredients per 100 g serving; details: assumption of complete transfer of media components to the finished product on a wt/wt basis
[2] = Risk categorization of cell culture media ingredients
Text: Category 1: These cell culture media components are food ingredients/additives that are GRAS or permitted by federal regulation without limitation on use. Exemplary compounds in this category include innocuous ingredients such as sugars, pH buffers, water soluble vitamins, and common antioxidants such as tocopherols.
Category 2: These cell culture media components are common dietary nutrients and are anticipated to have GRAS status for food use or be permitted by regulation for addition to food. Examples of such compounds include most of the inorganic salts and macronutrients that are present within the cell culture media. […] Majority of nutrients present within the poultry cell-based meat may be readily measured using common validated methods for food composition testing. […]
For example, situations where the compound is not detectable in finished product or is present at equivalent levels in comparator foods, compounds that are thermo-labile and will be digested during cooking, and/or compounds that are expected to be digested to innocuous compounds following ingestion. […] For Category 3 substances a final consideration in the safety assessment process may involve hazard characterization of the potential for a substance to produce toxic biological effects outside of the endpoints measured in a sub-chronic rat toxicity study. […]

B1: Bovine Transferrin: iron carrier of cell culture media (protein, UniProt Q29443 20-704, looked up)
Serotransferrin: DPERTVRWCTISTHEANKCASFRENVLRILESGPFVSCVKKTSHMDCIKAISNNEADAVTLDGGLVYEAGLKPNNLKPVVAEFHGTKDNPQTHYYAVAVVKKDTDFKLNELRGKKSCHTGLGRSAGWNIPMAKLYKELPDPQESIQRAAANFFSASCVPCADQSSFPKLCQLCAGKGTDKCACSNHEPYFGYSGAFKCLMEGAGDVAFVKHSTVFDNLPNPEDRKNYELLCGDNTRKSVDDYQECYLAMVPSHAVVARTVGGKEDVIWELLNHAQEHFGKDKPDNFQLFQSPHGKDLLFKDSADGFLKIPSKMDFELYLGYEYVTALQNLRESKPPDSSKDECMVKWCAIGHQERTKCDRWSGFSGGAIECETAENTEECIAKIMKGEADAMSLDGGYLYIAGKCGLVPVLAENYKTEGESCKNTPEKGYLAVAVVKTSDANINWNNLKDKKSCHTAVDRTAGWNIPMGLLYSKINNCKFDEFFSAGCAPGSPRNSSLCALCIGSEKGTGKECVPNSNERYYGYTGAFRCLVEKGDVAFVKDQTVIQNTDGNNNEAWAKNLKKENFEVLCKDGTRKPVTDAENCHLARGPNHAVVSRKDKATCVEKILNKQQDDFGKSVTDCTSNFCLFQSNSKDLLFRDDTKCLASIAKKTYDSYLGDDYVRAMTNLRQCSTSKLLEACTFHKP
- Maximum Estimated Exposure per 100 g serving [1]: 150 mg
- Risk Assessment Category [2]: 3
